According to paper PMC11221535:

Key:
Assay in all cases: ITC
[1] = molecular target: TobE N-terminal docking domain (TobE ^NDD) (Methylorubrum extorquens AM1)
[2] = molecular target: TobE ^NDD-ACP didomain (Methylorubrum extorquens AM1)
[3] = molecular target: TobC C-terminal docking domain (TobC ^CDD) (Methylorubrum extorquens AM1)

| Kd [1] [µM] | Kd [2] [µM] | stoichiometry N [1] | Kd [3] [µM] | stoichiometry N [3] | Substance |
| --- | --- | --- | --- | --- | --- |
| 769 |  |  |  |  | TobC ^CDD R2271A (domain or fragment) |
| 4 | 5.7 | 0.8 |  |  | TobC C-terminal docking domain (TobC ^CDD) (domain or fragment) |
|  |  |  | 3.2 | 1 | TobE N-terminal docking domain (TobE ^NDD) (domain or fragment) |
